# According to paper doi:10.1101/2025.09.30.679617:
# Biological target: PfCSP junctional peptide 21 (Plasmodium falciparum) (UniProt Q7K740)
# Test: BLI
substance,measurement,value
CIS43 mAb,Kd,21 nM
